Numbering of substitutions follows the chain as printed.
B1: BY6-3 (antibody, IgG1, V domains shown)
VH: QVQLVQSGSELKKPGASVKISCKASGYSFTNYGMNWVRQAPGQGLKWMGWINTNTGEPTYAEEFKGRFVFSLDTSVSTAYLQISSLKAEDTAVYYCARLGFGNAMDYWGQGTLVTVSS
VL: DIVMTQSPDSLAVSLGERATMNCKSSQTLLNSGNQKNYLTWYQQKPGQPPKLLIYWATTRESGVPDRFSGSGSGTDFTLTISSLQAEDVAVYYCQNDYTYPLTFGAGTKLEIK
B2: BY6-1 (antibody, IgG1, V domains shown)
VH: B1 VH
VL: B1 VL with T99S
B3: BY6-4 (antibody, IgG1, V domains shown)
VH: B1 VH
VL: B1 VL with Q35N, T99S

Tests used:
[1] = molecular target: 人Claudin18.2 (human Claudin18.2, 密蛋白18.2) (human) (UniProt P56856); assay: relative binding activity against the control antibody, after strong-acid stress
[2] = molecular target: 人Claudin18.2 (human Claudin18.2, 密蛋白18.2) (human) (UniProt P56856); assay: relative binding activity against the control antibody, after repeated freezing and thawing

| Binder | 相对结合活性 (relative to the control antibody BY0-0) [1] [%] | 相对结合活性 (relative to the control antibody BY0-0) [2] [%] |
| --- | --- | --- |
| B1 | 80 | – |
| B2 | – | > 80 |
| B3 | 80 | – |

— patent publication CN113929780A
